Test results reported in patent publication EP3988566A1.

Target: soluble polymeric amyloid beta (UniProt P05067)
Assay: ELISA, plate coated with amyloid oligomer (55 µg/ml), anti-mouse IgG-AP detection

soluble polymeric amyloid beta, sequence (P05067 672-713): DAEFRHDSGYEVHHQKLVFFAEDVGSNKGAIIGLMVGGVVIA

B1: mouse monoclonal antibody ACI-01-Ab7C2 (antibody, mouse IgG2b, V domains shown)
VH: EVQLVESGGGLVQPGGSLKLSCAASGFTFSSYGMSWVRQTPDKRLELVASINSNGGSTYYPDSVKGRFTISRDNAKNTLYLQMSSLKSEDTAMYYCASGDYWGQGSTLTVSS
VL: DVVMTQTPLSLPVSLGDQASISCRSSQSLVYSNGDTYLHWYLQKPGQSPKLLIYKVSNRFSGVPDRFSGSGSGTDFTLKISRVEAEDLGVYFCSQSTHVPWTFGGGTKLEIK
  O.D. at 0.078 ug/ml antibody: 0.652 O.D.
  O.D. at 0.156 ug/ml antibody: 1.04 O.D.
  O.D. at 0.312 ug/ml antibody: 1.72 O.D.
  O.D. at 0.625 ug/ml antibody: 2.81 O.D.
